Target: ERα-LBD (ligand binding domain of estrogen receptor α)
Test: other fluorescence titration; quenching of the endogenous fluorescence of ERα-LBD (0.2 μm, 600 μL) by microaddition of CTX solution; excitation 295 nm, slits 10 nm, 25°C

With “chlorotoxin (CTX), recombinant, cut from GST-CTX (from UniProt P45639 1-36) (peptide)” the Ka was 3e+07 M⁻¹.

— PMC6488122
